Measured values as given in patent publication US20230303658A1 (published 2023).

B1: Fc_RK type anti-EpCAM antibody (antibody, human IgG1, kappa)
heavy: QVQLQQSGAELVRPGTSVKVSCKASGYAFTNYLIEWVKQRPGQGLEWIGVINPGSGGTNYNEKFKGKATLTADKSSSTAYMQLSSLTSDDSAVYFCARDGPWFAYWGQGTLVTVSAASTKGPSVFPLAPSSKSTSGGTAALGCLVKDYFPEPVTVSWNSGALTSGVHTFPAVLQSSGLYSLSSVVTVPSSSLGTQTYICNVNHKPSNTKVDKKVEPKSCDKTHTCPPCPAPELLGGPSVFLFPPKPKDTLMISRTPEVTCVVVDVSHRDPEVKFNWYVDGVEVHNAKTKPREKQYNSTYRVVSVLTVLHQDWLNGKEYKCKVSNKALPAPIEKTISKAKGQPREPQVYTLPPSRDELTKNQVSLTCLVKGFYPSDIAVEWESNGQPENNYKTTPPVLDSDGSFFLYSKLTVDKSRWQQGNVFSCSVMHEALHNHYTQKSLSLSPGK
light: NIVMTQSPKSMSMSVGERVTLTCKASENVVTYVSWYQQKPEQSPKLLIYGASNRYTGVPDRFTGSGSATDFTLTISSVQAEDLADYHCGQGYSYPYTFGGGTKLEIKRTVAAPSVFIFPPSDEQLKSGTASVVCLLNNFYPREAKVQWKVDNALQSGNSQESVTEQDSKDSTYSLSSTLTLSKADYEKHKVYACEVTHQGLSSPVTKSFNRGEC
B2: Fc_RR type anti-EpCAM antibody (antibody, human IgG1, kappa)
heavy: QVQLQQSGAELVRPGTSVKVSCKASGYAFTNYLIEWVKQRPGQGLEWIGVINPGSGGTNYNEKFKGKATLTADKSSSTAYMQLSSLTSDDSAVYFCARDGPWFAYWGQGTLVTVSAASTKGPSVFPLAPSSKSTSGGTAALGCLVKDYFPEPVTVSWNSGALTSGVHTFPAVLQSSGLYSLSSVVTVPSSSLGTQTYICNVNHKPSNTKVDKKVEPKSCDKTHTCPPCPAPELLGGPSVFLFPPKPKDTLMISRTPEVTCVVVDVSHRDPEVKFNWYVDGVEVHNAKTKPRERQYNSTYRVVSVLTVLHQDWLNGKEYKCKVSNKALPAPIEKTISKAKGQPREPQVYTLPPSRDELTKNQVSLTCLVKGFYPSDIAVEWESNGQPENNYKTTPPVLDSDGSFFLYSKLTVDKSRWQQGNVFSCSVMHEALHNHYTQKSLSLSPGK
light: B1 light
B3: Fc_wt type anti-EpCAM antibody (antibody, human IgG1, kappa)
heavy: not shown
light: B1 light
notes: also called edrecolomab variable regions on human Igγ1

How the values were obtained:
[1] = molecular target: T1, CD16V protein (extracellular portion of CD16A V158 with C-terminal FLAG sequence) (human, UniProt P08637 19-208); experiment: ELISA: EpCAM coated, anti-EpCAM antibody captured, FLAG-tagged CD16V protein titrated, anti-FLAG-HRP detection
T1 construct: Soluble protein from ExpiCHO-S cells, purified on anti-FLAG gel
Experimental: (§1) After incubation at room temperature for one hour, the plate was washed with TBS-T. Next, 20 μL of horseradish peroxidase-labeled anti-FLAG (registered trademark) M2 antibody diluted with the diluent was added to each well as a detection antibody. After incubating at room temperature for one hour, the plate was washed with TBS-T. After adding TMB+Substrate-Chromogen and incubating, the reaction was stopped by adding 1M sulfuric acid, and the absorbance at 450 nm and reference wavelength were measured using Infinite 200 PRO.

CD16V_K131D_N74Q [2] = molecular target: T2, CD16V_K131D_N74Q (human, UniProt P08637 19-208); experiment: ELISA: EpCAM coated, anti-EpCAM antibody captured, FLAG-tagged CD16V protein titrated from 10 µg/mL, anti-FLAG-HRP detection
T2 construct: Soluble FLAG-tagged mutant
Experimental: as §1

CD16V_K128E_K131D [3] = molecular target: T3, CD16V_K128E_K131D (human, UniProt P08637 19-208); experiment: as above
T3 construct: Soluble FLAG-tagged mutant
Experimental: as §1

CD16V_K128E_K131E [4] = molecular target: T4, CD16V_K128E_K131E (human, UniProt P08637 19-208); experiment: as above
T4 construct: Soluble FLAG-tagged mutant
Experimental: as §1

CD16V_K131D [5] = molecular target: T5, CD16V_K131D (human, UniProt P08637 19-208); experiment: as above
T5 construct: Soluble FLAG-tagged mutant; also called K149D (AAH17865.1 numbering)
Experimental: as §1

CD16V_K131D_N38Q [6] = molecular target: T6, CD16V_K131D_N38Q (human, UniProt P08637 19-208); experiment: as above
T6 construct: Soluble FLAG-tagged mutant
Experimental: as §1

CD16V_K131D_N74Q [7] = molecular target: T2, CD16V_K131D_N74Q; experiment: ELISA: EpCAM coated, anti-EpCAM antibody captured, FLAG-tagged CD16V protein titrated, anti-FLAG-HRP detection
Experimental: as §1

CD16V_K128E_K131D [8] = molecular target: T3, CD16V_K128E_K131D; experiment: as above
Experimental: as §1

CD16V_K128E_K131E [9] = molecular target: T4, CD16V_K128E_K131E; experiment: as above
Experimental: as §1

CD16V_K131D [10] = molecular target: T5, CD16V_K131D; experiment: as above
Experimental: as §1

CD16V_K131D_N38Q [11] = molecular target: T6, CD16V_K131D_N38Q; experiment: as above
Experimental: as §1

[12] = molecular target: T1, CD16V protein (extracellular portion of …); experiment: ELISA: EpCAM coated, anti-EpCAM antibody captured, FLAG-tagged CD16V protein titrated from 10 µg/mL, anti-FLAG-HRP detection
Experimental: as §1

T6 sequence (P08637 other isoform, or with tags, fused parts or gaps K131D N38Q K131D N38Q): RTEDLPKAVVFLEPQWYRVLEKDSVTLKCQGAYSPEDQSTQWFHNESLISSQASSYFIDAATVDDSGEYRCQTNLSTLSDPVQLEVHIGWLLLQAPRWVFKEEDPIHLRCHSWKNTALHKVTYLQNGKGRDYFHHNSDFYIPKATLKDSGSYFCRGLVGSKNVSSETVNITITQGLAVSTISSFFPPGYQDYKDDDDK
T3 sequence (P08637 other isoform, or with tags, fused parts or gaps K128E K131D K128E K131D): as the sequence (P08637 other isoform, or with tags, fused parts or gaps K131D N38Q K131D N38Q) above, with Q38N, K128E counted along it
T1 sequence (P08637 other isoform, or with tags, fused parts or gaps): as the sequence (P08637 other isoform, or with tags, fused parts or gaps K131D N38Q K131D N38Q) above, with Q38N, D131K counted along it
T4 sequence (P08637 other isoform, or with tags, fused parts or gaps K128E K131E K128E K131E): as the sequence (P08637 other isoform, or with tags, fused parts or gaps K131D N38Q K131D N38Q) above, with Q38N, K128E, D131E counted along it
T5 sequence (P08637 other isoform, or with tags, fused parts or gaps K131D K131D): as the sequence (P08637 other isoform, or with tags, fused parts or gaps K131D N38Q K131D N38Q) above, with Q38N counted along it
T2 sequence (P08637 other isoform, or with tags, fused parts or gaps K131D N74Q K131D N74Q): as the sequence (P08637 other isoform, or with tags, fused parts or gaps K131D N38Q K131D N38Q) above, with Q38N, N74Q counted along it

| Binder | binding result [1] | binding result (CD16V_K131D_N74Q [2]) | binding result (CD16V_K128E_K131D [3]) | binding result (CD16V_K128E_K131E [4]) | binding result (CD16V_K131D [5]) | binding result (CD16V_K131D_N38Q [6]) | binding result (CD16V_K131D_N74Q [7]) | binding result (CD16V_K128E_K131D [8]) | binding result (CD16V_K128E_K131E [9]) | binding result (CD16V_K131D [10]) | binding result (CD16V_K131D_N38Q [11]) | binding result [12] |
| --- | --- | --- | --- | --- | --- | --- | --- | --- | --- | --- | --- | --- |
| B1 | no binding (tested: CD16V protein up to 10 µg/mL) | binds | binds | binds | binds | binds | – | – | – | – | – | – |
| B2 | no binding (tested: CD16V protein up to 10 µg/mL) | binds | binds | binds | binds | binds | – | – | – | – | – | – |
| B3 | – | – | – | – | – | – | no binding (tested: CD16V protein up to 10 µg/mL) | no binding (tested: CD16V protein up to 10 µg/mL) | no binding (tested: CD16V protein up to 10 µg/mL) | no binding (tested: CD16V protein up to 10 µg/mL) | no binding (tested: CD16V protein up to 10 µg/mL) | binds |
